Ten molecules from patent US20230041822A1 (Molecular Partners, published 2023) can be followed below.

Assay [1] deals with T1, HBVc18 peptide-MHC complex (HBVc18pMHC), biotinylated recombinant tripartite complex of HLA-A*0201, human … (human; hepatitis B virus).
T1 construct: also called HLA-A*0201: HBc18; target peptide-MHC complex
The assay is described as follows: SPR (ProteOn), biotinylated HBVc18pMHC on the NLC chip, DARPin protein injected, multi-trace fit.
Experimental: (§1) The binding affinities of the purified ankyrin repeat proteins on the HBVc18pMHC target were analyzed using a ProteOn Surface Plasmon Resonance (SPR) instrument (BioRad) and the measurement was performed according standard procedures known to the person skilled in the art.
(§2) Briefly, biotinylated HBVc18pMHC were diluted in PBST (PBS, pH 7.4 containing 0.005% Tween 20®) and coated on a NLC chip (BioRad) to a level of around 1000 resonance units (RU). […] No target regeneration was performed. The signals (i.e. resonance unit (RU) values) of the interspots were subtracted from the RU traces obtained after injection of ankyrin repeat protein. Based on the SPR traces obtained from the on-rate and off-rate measurements, the on- and off-rates of the corresponding ankyrin repeat proteins towards the pMHC complexes were determined.

Assay [2] has as its target T1, HBVc18 peptide-MHC complex …. The assay is described as follows: SPR (ProteOn), biotinylated HBVc18pMHC on NLC chip, ankyrin repeat protein injected, PBST.
Experimental: as §2
Dissociation constants (KD) were calculated from the estimated on- and off-rates using standard procedures known to the person skilled in the art.
The target is the same in assay [3]. Description: SPR (ProteOn), biotinylated HBVc18pMHC on the NLC chip, DARPin protein injected, multi-trace fit [continued) I].
Experimental: as §1, §2
For assay [4] the target is unchanged. Description: SPR (ProteOn), biotinylated HBVc18pMHC on the NLC chip, DARPin protein injected, multi-trace fit [continued) D].
Experimental: as §1, §2
Assay [5] has the same target. The assay is described as follows: SPR (ProteOn), biotinylated HBVc18pMHC on the NLC chip, DARPin protein injected, multi-trace fit [continued) H].
Experimental: as §1, §2
Assay [6] has the same target. Description: SPR (ProteOn), biotinylated HBVc18pMHC on the NLC chip, DARPin protein injected, multi-trace fit [continued) E].
Experimental: as §1, §2
Assay [7] has the same target. The assay is described as follows: SPR (ProteOn), biotinylated HBVc18pMHC on the NLC chip, DARPin protein injected, multi-trace fit [continued) F].
Experimental: as §1, §2
Assay [8] shares this target. The assay is described as follows: SPR (ProteOn), biotinylated HBVc18pMHC on the NLC chip, DARPin protein injected, multi-trace fit [continued) J].
Experimental: as §1, §2
Assay [9] shares this target. The assay is described as follows: SPR (ProteOn), biotinylated HBVc18pMHC on the NLC chip, DARPin protein injected, multi-trace fit. The source holds these as a separate data set.
Experimental: as §1, §2
The target is the same in assay [10]. The assay is described as above. This is another data set of the same source.
Experimental: as §1, §2
The target is the same in assay [11]. Description: SPR (ProteOn), biotinylated HBVc18pMHC on the NLC chip, DARPin protein injected, multi-trace fit [continued) G].
Experimental: as §1, §2

B1: TCE DARPin® protein #16 (designed binder, not shown: small tags and cut ends)
chain: GSDLGHKLLFAASAGQDDEVRILLAAGADVNAKDESGQTPLHYAAFVGHLEIVEVLLKAGADVNAKDQWGHTPLHVAATFGHLEIVEVLLKAGADVNAQDTWGTTPADLAATFGHEDIAEVLQKAA
The koff is a measure of how fast the partners let go of each other. The term kon denotes the rate constant with which the complex forms. The Kd is the constant that tells how readily two partners part at equilibrium. Take B1: in [1], the koff came to 0.000307 s⁻¹ and the kon turned out to be 66100 M⁻¹ s⁻¹. In addition, the Kd in [2] amounted to 4.65 nM.

B2: TCE DARPin® protein #25 (designed binder, not shown: small tags and cut ends)
chain: GSDLGSKLLYAAISGQDDEVRILLAAGADVNAKDESGQTPLHYAAFVGHLEIVEVLLKAGADVNAKDQWGHTPLHVAATFGHLEIVEVLLKAGADVNAQDTWGTTPADLAATFGHEDIAVVLQKAA
In the case of B2, the Kd in assay [2] is 1.03 nM. In assay [3], the dissociation rate constant (koff) worked out at 3.17e-05 s⁻¹ and the kon worked out at 30800 M⁻¹ s⁻¹.

B3: TCE DARPin® protein #20 (designed binder, not shown: small tags and cut ends)
chain: GSDLGFKLLEAALEGQDDEVRILLAAGADVNAKDESGQTPLHYAAFVGHLEIVEVLLKAGADVNAKDQWGHTPLHVAATFGHLEIVEVLLKAGADVNAQDTWGTTPADLAATFGHEDIAEVLQKAA
As for B3, the Kd in assay [2] came out at 0.736 nM. Further, in [4], the koff came out at 3.26e-05 s⁻¹ and the kon came to 44300 M⁻¹ s⁻¹.

B4: TCE DARPin® protein #24 (designed binder, not shown: small tags and cut ends)
chain: GSDLGWKLLHAATTGQDDEVRILLAAGADVNAKDESGQTPLHYAAFVGHLEIVEVLLKAGADVNAKDQWGHTPLHVAATFGHLEIVEVLLKAGADVNAQDTWGTTPADLAATFGHEDIAEVLQKAA
B4: in [5], the koff amounted to 0.000288 s⁻¹ and the kon was 61100 M⁻¹ s⁻¹. The Kd in assay [2] turned out to be 4.72 nM.

B5: TCE DARPin® protein #21 (designed binder, not shown: small tags and cut ends)
chain: GSDLGIKLLFAANFGQDDEVRILLAAGADVNAKDQSGRTPLHLAALWGHLEIVEVLLKAGADVNAKDVFGLTPLHIAATFGHLEIVEVLLKAGVDVNAQDYTGHTPADLAALIGHEDIAEVLQKAA
As to B5, in assay [6], the koff was 0.00106 s⁻¹ and the kon is 115000 M⁻¹ s⁻¹. In addition, in assay [2], the Kd was 9.23 nM.

B6: TCE DARPin® protein #22 (designed binder, not shown: small tags and cut ends)
chain: GSDLGKKLLSAAQSGQDDEVRILLGAGADVNAKDKWGHTPLHLAAVKGHLEIAEVLLKAGADVNAKDEWGSTPLHLAASQGHLEIVEVLLKAGADVNAKDKKGATPLHLAALVGHLEIVEVLLKAVADVNAQDKSGKTPADLAARAGHQDIAEVLQKAA
With B6, the Kd in assay [2] was found to be 13.8 nM. In [7], the koff stood at 0.0115 s⁻¹ and the kon amounted to 833000 M⁻¹ s⁻¹.

B7: TCE DARPin® protein #26 (designed binder, not shown: small tags and cut ends)
chain: GSDLGKKLLQAARAGQLDEVHELLKAGADVNAKDQHGKTPMHLAAQIGHLEIVEVLLKAGADVNAKDHIGWTPLHLAASVGHLEIVEVLLKAGADVNAKDQEGWTPLHVAAQLGHLEIVEVLLKAGADVNAQDKSGKTPADLAARAGHQDSAEVLQKAA
Consider B7, for which the Kd in assay [2] came out at 9.33 nM. For the same molecule, in assay [8], the koff amounted to 0.000812 s⁻¹ and the kon stood at 87000 M⁻¹ s⁻¹.

B8: TCE DARPin® protein #17 (designed binder, not shown: small tags and cut ends)
chain: GSDLGQKLLLAAAIGQDDEVRILLAAGADVNAKDESGHTPLHYAAHVGHLEIVEVLLKAGDVNAKDHRGFTPLHVAAQIGHLEIVEVLLKAGADVNAQDNWGITPADLAAWWGHEDIAEVLQKAA
B8: the Kd in [2] is 0.369 nM. Besides, in [9], the koff is 6.24e-06 s⁻¹ and the kon was 16900 M⁻¹ s⁻¹.

B9: TCE DARPin® protein #18 (designed binder, not shown: small tags and cut ends)
chain: GSDLGYKLLTAAIVGQDDEVRILLAAGADVNAKDQSGLTPLHLAAAYGHLEIVEVLLKAGADVNAKDKHGRTPLHLAALEGHLEIVEVLLKAGADVNAQDQFGITPADLAAAVGHEDIAEVLQKAA
In the case of B9, in [2], the Kd came out at 7.15 nM. In assay [10], the koff was 0.00218 s⁻¹ and the kon worked out at 305000 M⁻¹ s⁻¹.

B10: TCE DARPin® protein #23 (designed binder, not shown: small tags and cut ends)
chain: GSDLGQKLLTAAIVGQDDEVRILLAAGADVNAKDQSGLTPLHLAAAYGHLEIVEVLLKAGADVNAKDKHGRTPLHLAALEGHLEIVEVLLKAGADVNAQDQFGITPADLAAAVGHEDIAEVLQKAA
On to B10, for which, in assay [2], the Kd came out at 7.1 nM. Besides, in assay [11], the koff is 0.00274 s⁻¹ and the kon came to 387000 M⁻¹ s⁻¹.
